Measurements published in paper PMC12965321.

Molecular target: RING1 [the product of Sex combs extra (Sce) gene] (D. melanogaster (endogenous in embryos)) (UniProt Q9VB08)
Experiment: co-IP; nuclear extract of RYBP-KO, Siesta-Strep embryos (no RYBP), dialysed against 25 mM Hepes-KOH pH 7.6, 0.1 M KCl; anti-RING1 cross-linked to Dynabeads or Strep-Tactin Sepharose, 0.02% NP-40, overnight at 4°C; Western blot; compared with Siesta-Strep extract

Sequence of UniProt Q9VB08 (Q9VB08 whole entry): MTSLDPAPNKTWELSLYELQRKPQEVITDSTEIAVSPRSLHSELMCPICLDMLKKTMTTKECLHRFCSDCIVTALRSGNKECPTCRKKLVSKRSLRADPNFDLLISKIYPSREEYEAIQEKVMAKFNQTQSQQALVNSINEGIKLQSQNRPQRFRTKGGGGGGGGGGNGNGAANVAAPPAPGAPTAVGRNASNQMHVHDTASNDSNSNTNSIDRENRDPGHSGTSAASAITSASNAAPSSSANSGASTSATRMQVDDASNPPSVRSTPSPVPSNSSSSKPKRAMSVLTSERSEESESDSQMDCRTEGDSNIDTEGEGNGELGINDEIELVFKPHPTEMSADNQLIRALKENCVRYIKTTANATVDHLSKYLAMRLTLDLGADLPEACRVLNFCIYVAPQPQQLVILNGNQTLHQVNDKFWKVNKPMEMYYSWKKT

Twin-Strep-tagged and Myc-tagged Siesta protein (natural protein)
fold reduction of coimmunoprecipitation without RYBP against extract with RYBP: > 6 fold
